Values belong to the molecule of their own block, whether it stands above or below them. Starred links: 1 amine or outer side, 2 acyl side, 3 side chain; linkers in the order of their positions; H or OH if unused. Non-standard residues stand in square brackets, D forms with d. Residues, ends and D or L forms follow the SMILES beside them. Groups on a side chain read outwards from the residue. No end group written: not given here. *: point of attachment. C18 diacid = O=C(O)CCCCCCCCCCCCCCCCC(=O)*; γGlu = O=C(O)[C@H](CCC(=O)[*:2])N[*:1]; AEEA = NCCOCCOCC(=O)O; Aib = CC(C)(N)C(=O)O; AEA = NCCOCC(=O)O
How the values were obtained:
GLP-1R = biological target: T1, GLP-1R (Homo sapiens, UniProt P43220); experiment: Determination of GLP-1 activity: cAMP chemiluminescence (RLU) in CHO-K1 cell line stably expressing GLP-1R; format: cell-based; conditions: read-out: GLP-1 activity [EC50 (pmol)]
T1 construct: expressed in transfected cells; host or cells: CHO-K1
T1 sequence (P43220 24-463, species assumed): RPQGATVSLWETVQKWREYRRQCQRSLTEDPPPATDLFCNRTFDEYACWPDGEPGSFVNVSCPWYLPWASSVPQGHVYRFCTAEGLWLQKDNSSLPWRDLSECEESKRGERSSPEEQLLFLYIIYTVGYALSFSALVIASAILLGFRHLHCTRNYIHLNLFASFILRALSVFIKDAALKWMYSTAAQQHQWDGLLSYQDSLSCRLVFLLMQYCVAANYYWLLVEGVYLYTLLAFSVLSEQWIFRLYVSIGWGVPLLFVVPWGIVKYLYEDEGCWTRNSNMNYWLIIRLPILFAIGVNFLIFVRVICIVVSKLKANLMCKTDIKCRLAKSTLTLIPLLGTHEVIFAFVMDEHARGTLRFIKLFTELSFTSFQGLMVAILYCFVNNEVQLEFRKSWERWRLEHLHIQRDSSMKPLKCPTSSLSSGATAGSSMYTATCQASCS
Protocol: (§1) GLP-1R, under the stimulation of its specific agonist, can activate the intracellular adenylate cyclase pathway, and increase the level of cAMP, finally leading to the generation and release of insulin. The stimulation of the cell lines stably transfected with GLP-1R by the agonist to be tested can lead to rapid increase in the intracellular cAMP level, and the relative light units (RLUs) after stimulating the cells at each dose are determined by chemiluminescence method to calculate the EC50 of the agonist. This method for determining activity is commonly used for GLP-1 receptor agonist activity analysis at home and abroad.
CHO-K1 cell line stably expressing GLP-1R was stimulated with the agonist at different concentrations. The EC50 value of the agonist was calculated by determining the relative light units after stimulating the cells at each dose.

GLP-2R = biological target: T2, GLP-2R (Homo sapiens, UniProt O95838); experiment: Determination of GLP-2 activity: cAMP chemiluminescence (RLU) in CHO-K1 cell line stably expressing GLP-2R; format: cell-based; conditions: read-out: GLP-2 activity [EC50 (nmol)]
T2 construct: expressed in transfected cells; host or cells: CHO-K1
T2 sequence (O95838 1-553): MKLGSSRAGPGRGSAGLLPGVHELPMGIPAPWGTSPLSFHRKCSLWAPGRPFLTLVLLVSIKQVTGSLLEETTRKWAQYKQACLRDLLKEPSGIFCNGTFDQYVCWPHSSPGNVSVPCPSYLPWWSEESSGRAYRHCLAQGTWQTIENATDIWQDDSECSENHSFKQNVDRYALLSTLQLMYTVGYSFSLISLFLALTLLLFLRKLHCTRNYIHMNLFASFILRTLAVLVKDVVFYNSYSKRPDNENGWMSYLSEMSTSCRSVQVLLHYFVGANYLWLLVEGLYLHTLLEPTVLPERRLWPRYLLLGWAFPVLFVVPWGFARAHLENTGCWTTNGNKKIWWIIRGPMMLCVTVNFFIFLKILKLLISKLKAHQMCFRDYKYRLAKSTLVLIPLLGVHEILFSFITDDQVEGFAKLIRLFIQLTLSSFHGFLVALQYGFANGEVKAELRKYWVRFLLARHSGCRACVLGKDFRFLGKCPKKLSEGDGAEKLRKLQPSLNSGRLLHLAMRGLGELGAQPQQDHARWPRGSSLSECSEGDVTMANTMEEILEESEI
Protocol: as §1, with “GLP-2R, under” for “GLP-1R, under”, “for GLP-2” for “for GLP-1”
CHO-K1 cell line stably expressing GLP-2R was stimulated with the agonist at different concentrations. The EC50 value of the agonist was calculated by determining the relative light units after stimulating the cells at each dose.

[1] = biological target: glucagon-like peptide-1 (GLP-1) receptor
[2] = biological target: glucagon-like peptide-2 (GLP-2) receptor

Molecule: CC[C@H](C)[C@H](NC(=O)[C@H](Cc1ccccc1)NC(=O)[C@H](CC(=O)O)NC(=O)[C@H](CCCNC(=N)N)NC(=O)[C@H](C)NC(=O)[C@H](C)NC(=O)[C@H](CCC(N)=O)NC(=O)[C@H](CCCCNC(=O)CC[C@H](NC(=O)CCCCCCCCCCCCCCCCC(=O)O)C(=O)O)NC(=O)[C@H](CC(=O)O)NC(=O)[C@H](CC(C)C)NC(=O)[C@@H](NC(=O)[C@@H](NC(=O)[C@H](C)NC(=O)[C@H](CC(C)C)NC(=O)[C@H](CCC(=O)O)NC(=O)[C@H](CO)NC(=O)[C@@H](NC(=O)[C@H](Cc1ccccc1)NC(=O)[C@H](CO)NC(=O)CNC(=O)[C@H](CCC(=O)O)NC(=O)C(C)(C)NC(=O)[C@@H](N)Cc1c[nH]cn1)[C@@H](C)O)[C@@H](C)O)[C@@H](C)CC)C(=O)N[C@@H](C)C(=O)N[C@@H](Cc1c[nH]c2ccccc12)C(=O)N[C@@H](CC(C)C)C(=O)N[C@H](C(=O)N[C@@H](CCC(N)=O)C(=O)N[C@@H](Cc1c[nH]cn1)C(=O)N[C@@H](CCCCN)C(=O)N[C@H](C(=O)N[C@H](C(=O)N[C@@H](CC(=O)O)C(N)=O)[C@@H](C)O)[C@@H](C)CC)[C@@H](C)CC [Compound 1, His-Aib-Glu-Gly-Ser-Phe-Thr-Ser-Glu-Leu-Ala-Thr-Ile-Leu-Asp-Lys(γGlu-octadecanedioic acid-Gln-Ala-Ala-Arg-Asp-Phe-Ile-Ala-Trp-Leu-Ile-Gln-His-Lys-Ile-Thr-Asp-NH2] (H-H[Aib]EGSFTSELATILDK([γGlu-C18 diacid])QAARDFIAWLIQHKITD-NH2)
EC50 (GLP-1R): 0.0947 nM
EC50 (GLP-2R): 6.04 nM

B2: Compound 4 (peptide)
peptide: H[Aib]EGSFTSELATILDK([PEG3CH2CO-γGlu-C18 diacid])QAARDFIAWLIQHKITD-NH2
GLP-1 activity [EC50 (pmol)] [1]: 60 pmol
GLP-2 activity [EC50 (nmol)] [2]: 4.33 nmol

B3: Compound 3 (peptide)
peptide: H[Aib]EGSFTSELATILDK([AEEA-γGlu-C18 diacid])QAARDFIAWLIQHKITD-NH2
modifications: N-terminus assumed
SMILES: CC[C@H](C)[C@H](NC(=O)[C@H](Cc1ccccc1)NC(=O)[C@H](CC(=O)O)NC(=O)[C@H](CCCNC(=N)N)NC(=O)[C@H](C)NC(=O)[C@H](C)NC(=O)[C@H](CCC(N)=O)NC(=O)[C@H](CCCCNC(=O)COCCOCCNC(=O)CC[C@H](NC(=O)CCCCCCCCCCCCCCCCC(=O)O)C(=O)O)NC(=O)[C@H](CC(=O)O)NC(=O)[C@H](CC(C)C)NC(=O)[C@@H](NC(=O)[C@@H](NC(=O)[C@H](C)NC(=O)[C@H](CC(C)C)NC(=O)[C@H](CCC(=O)O)NC(=O)[C@H](CO)NC(=O)[C@@H](NC(=O)[C@H](Cc1ccccc1)NC(=O)[C@H](CO)NC(=O)CNC(=O)[C@H](CCC(=O)O)NC(=O)C(C)(C)NC(=O)[C@@H](N)Cc1c[nH]cn1)[C@@H](C)O)[C@@H](C)O)[C@@H](C)CC)C(=O)N[C@@H](C)C(=O)N[C@@H](Cc1c[nH]c2ccccc12)C(=O)N[C@@H](CC(C)C)C(=O)N[C@H](C(=O)N[C@@H](CCC(N)=O)C(=O)N[C@@H](Cc1c[nH]cn1)C(=O)N[C@@H](CCCCN)C(=O)N[C@H](C(=O)N[C@H](C(=O)N[C@@H](CC(=O)O)C(N)=O)[C@@H](C)O)[C@@H](C)CC)[C@@H](C)CC
GLP-1 activity [EC50 (pmol)] [1]: 60.1 pmol
GLP-2 activity [EC50 (nmol)] [2]: 4.7 nmol

B4: Compound 1 (peptide)
peptide: H[Aib]EGSFTSELATILDK([γGlu-C18 diacid])QAARDFIAWLIQHKITD-NH2
modifications: N-terminus assumed
SMILES: CC[C@H](C)[C@H](NC(=O)[C@H](Cc1ccccc1)NC(=O)[C@H](CC(=O)O)NC(=O)[C@H](CCCNC(=N)N)NC(=O)[C@H](C)NC(=O)[C@H](C)NC(=O)[C@H](CCC(N)=O)NC(=O)[C@H](CCCCNC(=O)CC[C@H](NC(=O)CCCCCCCCCCCCCCCCC(=O)O)C(=O)O)NC(=O)[C@H](CC(=O)O)NC(=O)[C@H](CC(C)C)NC(=O)[C@@H](NC(=O)[C@@H](NC(=O)[C@H](C)NC(=O)[C@H](CC(C)C)NC(=O)[C@H](CCC(=O)O)NC(=O)[C@H](CO)NC(=O)[C@@H](NC(=O)[C@H](Cc1ccccc1)NC(=O)[C@H](CO)NC(=O)CNC(=O)[C@H](CCC(=O)O)NC(=O)C(C)(C)NC(=O)[C@@H](N)Cc1c[nH]cn1)[C@@H](C)O)[C@@H](C)O)[C@@H](C)CC)C(=O)N[C@@H](C)C(=O)N[C@@H](Cc1c[nH]c2ccccc12)C(=O)N[C@@H](CC(C)C)C(=O)N[C@H](C(=O)N[C@@H](CCC(N)=O)C(=O)N[C@@H](Cc1c[nH]cn1)C(=O)N[C@@H](CCCCN)C(=O)N[C@H](C(=O)N[C@H](C(=O)N[C@@H](CC(=O)O)C(N)=O)[C@@H](C)O)[C@@H](C)CC)[C@@H](C)CC
GLP-1 activity [EC50 (pmol)] [1]: 94.7 pmol
GLP-2 activity [EC50 (nmol)] [2]: 6.04 nmol

Now from value to molecule:

EC50 (GLP-1R): 0.0686 nM
EC50 (GLP-2R): 5.51 nM
Molecule: CC[C@H](C)[C@H](NC(=O)[C@H](Cc1ccccc1)NC(=O)[C@H](CC(=O)O)NC(=O)[C@H](CCCNC(=N)N)NC(=O)[C@H](C)NC(=O)[C@H](C)NC(=O)[C@H](CCC(N)=O)NC(=O)[C@H](CCCCNC(=O)COCCNC(=O)CC[C@H](NC(=O)CCCCCCCCCCCCCCCCC(=O)O)C(=O)O)NC(=O)[C@H](CC(=O)O)NC(=O)[C@H](CC(C)C)NC(=O)[C@@H](NC(=O)[C@@H](NC(=O)[C@H](C)NC(=O)[C@H](CC(C)C)NC(=O)[C@H](CCC(=O)O)NC(=O)[C@H](CO)NC(=O)[C@@H](NC(=O)[C@H](Cc1ccccc1)NC(=O)[C@H](CO)NC(=O)CNC(=O)[C@H](CCC(=O)O)NC(=O)C(C)(C)NC(=O)[C@@H](N)Cc1c[nH]cn1)[C@@H](C)O)[C@@H](C)O)[C@@H](C)CC)C(=O)N[C@@H](C)C(=O)N[C@@H](Cc1c[nH]c2ccccc12)C(=O)N[C@@H](CC(C)C)C(=O)N[C@H](C(=O)N[C@@H](CCC(N)=O)C(=O)N[C@@H](Cc1c[nH]cn1)C(=O)N[C@@H](CCCCN)C(=O)N[C@H](C(=O)N[C@H](C(=O)N[C@@H](CC(=O)O)C(N)=O)[C@@H](C)O)[C@@H](C)CC)[C@@H](C)CC [Compound 2, His-Aib-Glu-Gly-Ser-Phe-Thr-Ser-Glu-Leu-Ala-Thr-Ile-Leu-Asp-Lys(PEG1CH2CO-γGlu-octadecanedioic acid)-Gln-Ala-Ala-Arg-Asp-Phe-Ile-Ala-Trp-Leu-Ile-Gln-His-Lys-Ile-Thr-Asp-NH2] (H-H[Aib]EGSFTSELATILDK([AEA-γGlu-C18 diacid])QAARDFIAWLIQHKITD-NH2; N-terminus assumed)

GLP-1 activity [EC50 (pmol)] [1]: 79.5 pmol
GLP-2 activity [EC50 (nmol)] [2]: 4.62 nmol
B1: Compound 6 (peptide)
peptide: H[Aib]EGSFTSELATILDK([PEG5CH2CO-γGlu-C18 diacid])QAARDFIAWLIQHKITD-NH2

GLP-1 activity [EC50 (pmol)] [1]: 68.7 pmol
GLP-2 activity [EC50 (nmol)] [2]: 5.51 nmol
B5: Compound 2 (peptide)
peptide: H[Aib]EGSFTSELATILDK([PEG1CH2CO-γGlu-C18 diacid])QAARDFIAWLIQHKITD-NH2

GLP-1 activity [EC50 (pmol)] [1]: 72.8 pmol
GLP-2 activity [EC50 (nmol)] [2]: 5.54 nmol
B6: Compound 5 (peptide)
peptide: H[Aib]EGSFTSELATILDK([PEG4CH2CO-γGlu-C18 diacid])QAARDFIAWLIQHKITD-NH2
